The chains are these.
B1: human Izumo1 ectodomain E71A (Izumo1E71A-His10-SpyTag-LPETGG) (domain or fragment)
chain: CVICDPSVVLALKSLEKDYLPGHLDAKHHKAMMERVENAVKDFQELSLNADAYMGVVDEATLQKGSWSLLKDLKRITDSDVKGDLFVKELFWMLHLQKETFATYVARFQKEAYCPNKCGVMLQTLIWCKNCKKEVHACRKSYDCGERNVEVPQMEDMILDCELNWHQASEGLTDYSFYRVWGNNTETLVSKGKEATLTKPMVGPEDAGSYRCELGSVNSSPATIINFHVTVLP
modifications: glycosylated (sites not given); SpyTag joined by an isopeptide bond to a SpyCatcher polyprotein
B2: human Izumo1 ectodomain R160A (Izumo1R160A-His10-SpyTag-LPETGG) (domain or fragment)
chain: CVICDPSVVLALKSLEKDYLPGHLDAKHHKAMMERVENAVKDFQELSLNEDAYMGVVDEATLQKGSWSLLKDLKRITDSDVKGDLFVKELFWMLHLQKETFATYVARFQKEAYCPNKCGVMLQTLIWCKNCKKEVHACAKSYDCGERNVEVPQMEDMILDCELNWHQASEGLTDYSFYRVWGNNTETLVSKGKEATLTKPMVGPEDAGSYRCELGSVNSSPATIINFHVTVLP
modifications: glycosylated (sites not given); SpyTag joined by an isopeptide bond to a SpyCatcher polyprotein
B3: human Izumo1 ectodomain H157A (Izumo1H157A-His10-SpyTag-LPETGG) (domain or fragment)
chain: CVICDPSVVLALKSLEKDYLPGHLDAKHHKAMMERVENAVKDFQELSLNEDAYMGVVDEATLQKGSWSLLKDLKRITDSDVKGDLFVKELFWMLHLQKETFATYVARFQKEAYCPNKCGVMLQTLIWCKNCKKEVAACRKSYDCGERNVEVPQMEDMILDCELNWHQASEGLTDYSFYRVWGNNTETLVSKGKEATLTKPMVGPEDAGSYRCELGSVNSSPATIINFHVTVLP
modifications: glycosylated (sites not given); SpyTag joined by an isopeptide bond to a SpyCatcher polyprotein

The target in the test is human Juno ectodomain, wild type (Juno-His10-SpyTag-LPETGG) (human, glycosylated (sites not given); SpyTag joined by an isopeptide bond to a SpyCatcher polyprotein). Briefly: FACS.
human Juno ectodomain, wild type (Juno-His10-SpyTag-LPETGG) (human, glycosylated (sites not given); SpyTag joined by an isopeptide bond to a SpyCatcher polyprotein), sequence (chain, as listed by the source): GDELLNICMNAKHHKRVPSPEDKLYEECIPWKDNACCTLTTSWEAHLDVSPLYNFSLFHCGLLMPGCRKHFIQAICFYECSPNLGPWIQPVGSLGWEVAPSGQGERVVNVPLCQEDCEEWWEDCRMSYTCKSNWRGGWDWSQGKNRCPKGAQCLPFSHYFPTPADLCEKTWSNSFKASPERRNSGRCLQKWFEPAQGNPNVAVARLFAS
As for B1, binding was characterised by a dissociation constant (Kd) of 43 nM. Turning to B2, binding was characterised by a dissociation constant (Kd) of 157 nM. As for B3, the figure is 243 nM.

(Values after paper PMC12381214 (2025).)
